Experimental data taken from patent US10239923B2, “Specific amyloid beta binding peptides and the use of same for treating and diagnosing alzheimer's dementia” (Forschungszentrum Juelich GmbH, priority 2015, dated 2019).
Square brackets hold non-standard residues; d marks the D form.

Tests used:
[1] = target: T1, Aβ1-42 monomers versus Aβ1-42 oligomers and fibrils (biotinylated, D-enantiomeric, immobilized) (Homo sapiens, UniProt P05067); experiment: Monoclonal phage ELISA; format: binding; conditions: individual phage clones; species immobilized at 320 nM; absorption at 450 nm normalized with 6E10 control; higher = more monomer-specific
T1 construct: biotinylated, D-enantiomeric Aβ1-42 monomers
From the text: The specificity of the peptide results from the difference in % of the absorption values for the target molecule or the bait (for example A beta monomer) and the normalized absorption values for the competitors (for example A beta oligomers and fibrils) in the monoclonal phage ELISA.
The absorption values then constitute the affinity of individual phage clones for a particular immobilized A beta species. Here, the specificity is not dependent on the strength of the affinity, but instead only on the difference of the affinities between the species. […] The terms “competitors” and “target molecule” or “bait” are defined as specified below.
A method for normalizing the obtained values should therefore be performed. From all absorption values of the individual phage clone in the monoclonal phage ELISA, the values of the phage antibodies tested for cross-reaction can be used as background. This occurs in accordance with the previously immobilized species. The signal values of the phage antibody from the reaction trays with immobilized Aβ1-42 oligomers for this purpose can be removed from the signal values of the individual phage clone from the reaction trays with immobilized Aβ1-42 oligomers. A similar process is then carried out for Aβ1-42 monomers. In this way, a possible background signal of the phage antibody can initially be calculated from the signals of the individual phage clone. […] Only in this way is an equal interpretation of the results particularly in respect of the assessment of the specificity of the individual phage clone possible (see FIG. 2).
The affinity of individual phage clones with respect to the target molecule and the competitors was examined by means of ELISA. For this purpose, all three species were immobilized in biotinylated form on a polystyrene surface at streptavidin bound thereon. Since, during the panning rounds, oligomers and fibrils were added at the same time as competitors, these two species were immobilized in the monoclonal phage ELISA, likewise mixed. […] The streptavidin-coated microtiter plates were pre-washed as specified by the manufacturer. […] For immobilization, 100 μl were used per reaction tray and were incubated for 15 minutes at room temperature. After having washed the entire plate(s) twice with 150 μl 1×TBS per reaction tray, a blocking step with 150 μl 1×TBS/0.1% (v/v) Tween-20/1% (w/v) BSA was performed for an hour at room temperature. Three washing steps with 150 μl 1×TBS/0.1% (v/v) Tween-20 then followed per reaction tray. The amplified individual phage clones were mixed 1:1 with 1× TBS/1% (w/v) BSA. The antibody 6E10 was diluted 1:10,000 in 1×TBS/0.1% (v/v) Tween-20. […] After washing five times with 150 μl 1×TBS/0.1% (v/v) Tween-20 per reaction tray, 200 μl 1×TBS/0.1% (v/v) Tween-20 were placed in each reaction tray, and the plate(s) incubated for one hour at room temperature. The solutions were removed and replaced as follows: In all reaction trays that had been incubated previously with individual phage clone dilutions or the batch without phages, 100 μl of a phage antibody diluted 1:5,000 in 1×TBS/0.1% (v/v) Tween-20 were now added. The enzyme horseradish peroxidase (HRP) was coupled to this antibody and later served for the conversion of a substrate (TMB). […] At the same time, 100 μl of a second antibody diluted 1:1,000 in 1×TBS/0.1% (v/v) Tween-20 were now added to all reaction trays that had been previously incubated with the dilution of the 6E10 antibody, said second antibody being able to identify and bind to the 6E10 antibody originating from mice. This antibody is also HRP-coupled and thus allows a quantification of the binding of the first antibody to the immobilized target molecules or the plastics surface of the reaction tray. After one hour of incubation at room temperature, the plate(s) was/were washed 10 times with 150 μl 1×TBS/0.1% (v/v) Tween-20 per reaction tray. The signal was detected by adding the substrate 3,3′,5,5′-tetramethylbenzidine (TMB). […]

Aβ1-42 = Aβ1-42 (Homo sapiens, UniProt P05067); experiment: ThT test, modulation of Aβ1-42 aggregation; format: biochemical; conditions: 10 μM Aβ1-42, equimolar peptide, versus Aβ1-42 alone = 100%
From the text: FIG. 3: The average relative fluorescence from seven independently performed ThT experiments with standard deviation is shown. The dye Thioflavin T (ThT) binds to β-pleated sheet structures in the batch and thereupon changes its fluorescence spectrum. […] The time in which the logarithmic rise of the fluorescence signal transitioned into a stationary phase was set to 100%.

[2] = target: Aβ1-42 species of different size (Homo sapiens, UniProt P05067); experiment: Density gradient centrifugation, tris-tricine SDS gel and silver staining of Aβ1-42 species; format: biochemical; conditions: 80 μM Aβ1-42 pre-incubated […], 40 μM peptide for 40 minutes
Description: The batch was then incubated either with or without addition of peptide for a further 40 minutes and was then placed on an iodixanol density gradient. The gradient was then centrifuged, wherein the contents of the sample (Aβ1-42 species of different size) diffused within the gradient in accordance with their size and shape. The gradient was fractionated after centrifugation into 15 fractions (1-15), and the first 14 individual fractions were applied to a tris-tricine SDS gel. The contents per fraction were separated electrophoretically. […] The batch was then incubated either without (A) or with addition of different concentrations of Mosd1 (B=10 μM Mossd1; C=20 μM Mosd1; D=40 μM Mosd1; E=80 μM Mosd1) for a further 40 minutes and was then placed on an iodixanol density gradient. The gradient was then centrifuged, wherein the contents of the sample (Aβ1-42 species of different size) diffused within the gradient in accordance with their size and shape. The gradient was fractionated after centrifugation (1-15), and the individual fractions were applied to a tris-tricine SDS gel. The contents per fraction were separated electrophoretically.

PC-12 cells = experiment: MTT reduction test, Aβ1-42-induced cell toxicity; format: cell-based; conditions: 0.1% TritonX-100, positive control for cell toxicity
Description: The samples were placed in the culture medium of the cells and were incubated over 24 hours with the cells at 37° C. The viability of the cells was then determined on the basis of an MTT test. Here, a metabolic reactant was supplied to the cells, which reactant could be converted by metabolically active cells (living cells). Formazan crystals are the product of this conversion and can be dissolved. The coloration of the medium after solubilization corresponds to the conversion rate of the reactant and therefore the viability of the cells. Untreated cells (medium, white chequered pattern) served as living control, and the proportion of vital cells was defined as 100%. The values of the other batches were normalized to this value.

transgenic AD mice = conditions: oral administration in drinking water; cited from earlier work

T1 sequence (P05067 672-713): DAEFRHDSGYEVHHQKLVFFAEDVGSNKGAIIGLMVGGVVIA
Chain of Aβ1-42 species of different size (P05067 672-713 limits assumed): as the sequence (P05067 672-713) above
Chain of Aβ1-42 (P05067 672-713 limits assumed): as the sequence (P05067 672-713) above

GTMLKFSGMNLT (H-G[dT][dM][dL][dK][dF][dS]G[dM][dN][dL][dT]-NH2; SMILES CSCC[C@@H](NC(=O)CNC(=O)[C@@H](CO)NC(=O)[C@@H](Cc1ccccc1)NC(=O)[C@@H](CCCCN)NC(=O)[C@@H](CC(C)C)NC(=O)[C@@H](CCSC)NC(=O)[C@H](NC(=O)CN)[C@H](C)O)C(=O)N[C@H](CC(N)=O)C(=O)N[C@H](CC(C)C)C(=O)N[C@@H](C(N)=O)[C@H](C)O) [Mosd3]
Difference in signal strength between Aβ1-42 monomers (100%) and Aβ1-42 oligomers and fibrils [1]: 59.955% | relative ThT fluorescence (formation of β-pleated sheet structures) (Aβ1-42): increase the ThT fluorescence | oligomeric Aβ1-42 species (fractions 4-7) [2]: reduce | proportions of high-molecular Aβ1-42 species (fractions 10-14) [2]: increase

HNWFYWTTEPYD (H-[dH][dN][dW][dF][dY][dW][dT][dT][dE][dP][dY][dD]-NH2; SMILES C[C@H](O)[C@@H](NC(=O)[C@@H](Cc1c[nH]c2ccccc12)NC(=O)[C@@H](Cc1ccc(O)cc1)NC(=O)[C@@H](Cc1ccccc1)NC(=O)[C@@H](Cc1c[nH]c2ccccc12)NC(=O)[C@@H](CC(N)=O)NC(=O)[C@H](N)Cc1c[nH]cn1)C(=O)N[C@@H](C(=O)N[C@H](CCC(=O)O)C(=O)N1CCC[C@@H]1C(=O)N[C@H](Cc1ccc(O)cc1)C(=O)N[C@H](CC(=O)O)C(N)=O)[C@H](C)O) [Mosd4]
Difference in signal strength between Aβ1-42 monomers (100%) and Aβ1-42 oligomers and fibrils [1]: 69.154% | relative ThT fluorescence (formation of β-pleated sheet structures) (Aβ1-42): only a very small influence

HTWTTYDYVWRL (H-[dH][dT][dW][dT][dT][dY][dD][dY][dV][dW][dR][dL]-NH2; SMILES CC(C)C[C@@H](NC(=O)[C@@H](CCCNC(=N)N)NC(=O)[C@@H](Cc1c[nH]c2ccccc12)NC(=O)[C@H](NC(=O)[C@@H](Cc1ccc(O)cc1)NC(=O)[C@@H](CC(=O)O)NC(=O)[C@@H](Cc1ccc(O)cc1)NC(=O)[C@H](NC(=O)[C@H](NC(=O)[C@@H](Cc1c[nH]c2ccccc12)NC(=O)[C@H](NC(=O)[C@H](N)Cc1c[nH]cn1)[C@H](C)O)[C@H](C)O)[C@H](C)O)C(C)C)C(N)=O) [Mosd2]
Difference in signal strength between Aβ1-42 monomers (100%) and Aβ1-42 oligomers and fibrils [1]: 67.145% | relative ThT fluorescence (formation of β-pleated sheet structures) (Aβ1-42): increase the ThT fluorescence | oligomeric Aβ1-42 species (fractions 4-7) [2]: reduce | proportions of high-molecular Aβ1-42 species (fractions 10-14) [2]: increase

LSMNITTVHRWH (H-[dL][dS][dM][dN][dI][dT][dT][dV][dH][dR][dW][dH]-NH2; SMILES CC[C@@H](C)[C@@H](NC(=O)[C@@H](CC(N)=O)NC(=O)[C@@H](CCSC)NC(=O)[C@@H](CO)NC(=O)[C@H](N)CC(C)C)C(=O)N[C@@H](C(=O)N[C@@H](C(=O)N[C@@H](C(=O)N[C@H](Cc1c[nH]cn1)C(=O)N[C@H](CCCNC(=N)N)C(=O)N[C@H](Cc1c[nH]c2ccccc12)C(=O)N[C@H](Cc1c[nH]cn1)C(N)=O)C(C)C)[C@H](C)O)[C@H](C)O) [Mosd11]
Difference in signal strength between Aβ1-42 monomers (100%) and Aβ1-42 oligomers and fibrils [1]: 57.671%

STLHFYTAFLNK (H-[dS][dT][dL][dH][dF][dY][dT][dA][dF][dL][dN][dK]-NH2; SMILES CC(C)C[C@@H](NC(=O)[C@@H](Cc1ccccc1)NC(=O)[C@@H](C)NC(=O)[C@H](NC(=O)[C@@H](Cc1ccc(O)cc1)NC(=O)[C@@H](Cc1ccccc1)NC(=O)[C@@H](Cc1c[nH]cn1)NC(=O)[C@@H](CC(C)C)NC(=O)[C@H](NC(=O)[C@H](N)CO)[C@H](C)O)[C@H](C)O)C(=O)N[C@H](CC(N)=O)C(=O)N[C@H](CCCCN)C(N)=O) [Mosd6]
Difference in signal strength between Aβ1-42 monomers (100%) and Aβ1-42 oligomers and fibrils [1]: 67.981%

TritonX-100 [reference compound]
amount of viable cells (untreated cells = 100%) (PC-12 cells): 1.5%

VHWDFRQWWQPS (H-[dV][dH][dW][dD][dF][dR][dQ][dW][dW][dQ][dP][dS]-NH2; SMILES CC(C)[C@@H](N)C(=O)N[C@H](Cc1c[nH]cn1)C(=O)N[C@H](Cc1c[nH]c2ccccc12)C(=O)N[C@H](CC(=O)O)C(=O)N[C@H](Cc1ccccc1)C(=O)N[C@H](CCCNC(=N)N)C(=O)N[C@H](CCC(N)=O)C(=O)N[C@H](Cc1c[nH]c2ccccc12)C(=O)N[C@H](Cc1c[nH]c2ccccc12)C(=O)N[C@H](CCC(N)=O)C(=O)N1CCC[C@@H]1C(=O)N[C@H](CO)C(N)=O) [Mosd20]
Difference in signal strength between Aβ1-42 monomers (100%) and Aβ1-42 oligomers and fibrils [1]: 45.718%

VHWDFRQWWQQS (H-[dV][dH][dW][dD][dF][dR][dQ][dW][dW][dQ][dQ][dS]-NH2; SMILES CC(C)[C@@H](N)C(=O)N[C@H](Cc1c[nH]cn1)C(=O)N[C@H](Cc1c[nH]c2ccccc12)C(=O)N[C@H](CC(=O)O)C(=O)N[C@H](Cc1ccccc1)C(=O)N[C@H](CCCNC(=N)N)C(=O)N[C@H](CCC(N)=O)C(=O)N[C@H](Cc1c[nH]c2ccccc12)C(=O)N[C@H](Cc1c[nH]c2ccccc12)C(=O)N[C@H](CCC(N)=O)C(=O)N[C@H](CCC(N)=O)C(=O)N[C@H](CO)C(N)=O) [Mosd12]
Difference in signal strength between Aβ1-42 monomers (100%) and Aβ1-42 oligomers and fibrils [1]: 59.012%

YSFHFEMNMGNY (H-[dY][dS][dF][dH][dF][dE][dM][dN][dM]G[dN][dY]-NH2; SMILES CSCC[C@@H](NC(=O)[C@@H](CC(N)=O)NC(=O)[C@@H](CCSC)NC(=O)[C@@H](CCC(=O)O)NC(=O)[C@@H](Cc1ccccc1)NC(=O)[C@@H](Cc1c[nH]cn1)NC(=O)[C@@H](Cc1ccccc1)NC(=O)[C@@H](CO)NC(=O)[C@H](N)Cc1ccc(O)cc1)C(=O)NCC(=O)N[C@H](CC(N)=O)C(=O)N[C@H](Cc1ccc(O)cc1)C(N)=O) [Mosd13]
Difference in signal strength between Aβ1-42 monomers (100%) and Aβ1-42 oligomers and fibrils [1]: 57.246%

rprtrlhthrnr [Mosd D3]
cognitive capabilities (transgenic AD mice): significantly improved cognitive capabilities | plaques (transgenic AD mice): much fewer plaques
